# Target: Syntaxin-1 (GST-tagged) (Homo sapiens (Human)) (UniProt Q16623)
# Assay: ELISA-based competition assay; peptide (0.1, 0.5, 1 mM) preincubated with GST-Syntaxin-1 (10 or 5 nM), added to His-Munc18 (100 nM) on a nickel plate; anti-GST detection, A450
# Syntaxin-1 (GST-tagged) (Homo sapiens (Human)), sequence (Q16623 1-261 limits assumed): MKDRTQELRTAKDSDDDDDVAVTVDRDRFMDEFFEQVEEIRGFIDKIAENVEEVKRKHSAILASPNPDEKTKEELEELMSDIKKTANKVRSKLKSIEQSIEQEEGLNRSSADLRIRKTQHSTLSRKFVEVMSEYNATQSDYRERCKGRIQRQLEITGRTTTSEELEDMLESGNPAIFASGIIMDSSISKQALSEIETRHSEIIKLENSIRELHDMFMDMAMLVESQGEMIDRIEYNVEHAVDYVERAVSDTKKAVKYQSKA
row,maximum inhibition of Munc18/Syntaxin-1 binding [%],Substance
1,67,Ac-HILDMW-NH2
2,37,Ac-His-Ala-Leu-Arg-Phe-Trp-NH2 (peptide)

# Reference: US20210032287A1
